What is called stoichiometry N is the number of molecules, sites or subunits per partner or assembly.

This note sets out measurements from paper doi:10.1101/2022.06.27.497840 (bioRxiv, 2022).

The chains are these.
T1: MBP-Mlh2 (Saccharomyces cerevisiae (SK1), UniProt Q07980 1-695)
T1 sequence: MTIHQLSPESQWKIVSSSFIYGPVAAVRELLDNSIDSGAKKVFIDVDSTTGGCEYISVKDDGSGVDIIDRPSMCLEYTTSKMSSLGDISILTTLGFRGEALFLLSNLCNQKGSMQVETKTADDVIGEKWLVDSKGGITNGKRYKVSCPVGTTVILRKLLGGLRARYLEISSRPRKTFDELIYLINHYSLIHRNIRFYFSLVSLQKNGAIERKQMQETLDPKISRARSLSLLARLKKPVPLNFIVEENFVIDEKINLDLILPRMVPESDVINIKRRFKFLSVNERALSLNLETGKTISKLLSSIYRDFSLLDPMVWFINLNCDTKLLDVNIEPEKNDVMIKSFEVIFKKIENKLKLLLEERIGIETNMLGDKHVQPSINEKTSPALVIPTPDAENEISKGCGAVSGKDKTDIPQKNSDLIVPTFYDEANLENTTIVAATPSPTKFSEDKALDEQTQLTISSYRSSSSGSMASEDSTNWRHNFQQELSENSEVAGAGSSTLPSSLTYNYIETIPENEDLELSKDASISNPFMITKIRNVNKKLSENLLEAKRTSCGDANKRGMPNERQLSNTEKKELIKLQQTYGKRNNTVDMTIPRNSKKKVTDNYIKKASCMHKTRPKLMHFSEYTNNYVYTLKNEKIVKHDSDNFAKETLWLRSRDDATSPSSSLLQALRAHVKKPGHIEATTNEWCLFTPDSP

T2: MBP-Mlh1/MBP-Mlh2 complex (Saccharomyces cerevisiae (SK1), UniProt P38920;Q07980)
T2 sequence 1: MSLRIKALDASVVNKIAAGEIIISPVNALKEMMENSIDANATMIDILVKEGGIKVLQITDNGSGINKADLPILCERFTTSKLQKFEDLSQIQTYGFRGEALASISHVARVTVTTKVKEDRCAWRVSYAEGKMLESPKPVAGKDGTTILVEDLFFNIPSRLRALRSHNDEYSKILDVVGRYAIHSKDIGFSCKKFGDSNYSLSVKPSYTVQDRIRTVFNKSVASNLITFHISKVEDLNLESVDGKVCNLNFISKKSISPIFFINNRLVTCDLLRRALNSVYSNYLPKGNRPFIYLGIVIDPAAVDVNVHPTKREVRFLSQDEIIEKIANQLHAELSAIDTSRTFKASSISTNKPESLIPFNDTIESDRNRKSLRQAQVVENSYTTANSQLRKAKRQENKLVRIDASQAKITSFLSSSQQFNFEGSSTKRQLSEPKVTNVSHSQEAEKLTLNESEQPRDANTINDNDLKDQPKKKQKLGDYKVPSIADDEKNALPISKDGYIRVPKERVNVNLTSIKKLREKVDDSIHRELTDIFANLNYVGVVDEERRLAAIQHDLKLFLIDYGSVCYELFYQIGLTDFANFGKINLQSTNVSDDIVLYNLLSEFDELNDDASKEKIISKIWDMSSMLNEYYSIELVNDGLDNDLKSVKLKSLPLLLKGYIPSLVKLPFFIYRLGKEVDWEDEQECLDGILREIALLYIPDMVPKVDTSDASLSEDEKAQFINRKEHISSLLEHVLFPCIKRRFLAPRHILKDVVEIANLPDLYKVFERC
T2 sequence 2: T1 sequence

T3: MBP-Mlh1 (Saccharomyces cerevisiae (SK1), UniProt P38920 1-769)
T3 sequence: T2 sequence 1

B1: Sgs1(1-605) fragment, untagged (domain or fragment)
chain: MVTKPSHNLRREHKWLKETATLQEDKDFVFQAIQKHIANKRPKTNSPPTTPSKDECGPGTTNFITSIPASGPTNTATKQHEVMQTLSNDTEWLSYTATSNQYADVPMVDIPASTSVVSNPRTPNGSKTHNFNTFRPHMASSLVENDSSRNLGSRNNNKSVIDNSSIGKQLENDIKLEVIRLQGSLIMALKEQSKLLLQKCSIIESTSLSEDAKRLQLSRDIRPQLSNMSIRIDSLEKEIIKAKKDGMSKDQSKGRSQVSSQDDNIISSILPSPLEYNTSSRNSNLTSTTATTVTKALAITGAKQNITNNTGKNSNNDSNNDDLIQVLDDEDDIDCDPPVILKEGAPHSPAFPHLHMTSEEQDELTRRRNMRSREPVNYRIPDRDDPFDYVMGKSLRDDYPDVEREEDELTMEAEDDAHSSYMTTRDEEKEENELLNQSDFDFVVNDDLDPTQDTDYHDNMDVSANIQESSQEGDTRSTITLSQNKNVQVILSSPTAQSVPSNGQNQIGVEHIDLLEDDLEKDAILDDSMSFSFGRQHMPMSHSDLELIDSEKENEDFEEDNNNNGIEYLSDSDLERFDEERENRTQVADIQELDNDLKIITERKL
B2: Rmi1 (subunit of the Top3/Rmi1 complex as used in XL-MS) (natural protein)
chain: MSFSSILSQDITDDITPPAYSATLGSREQIVFRAYQNEPWLAGTASNLILDKKLVIVDRELLFQVLMVENITKSKLTQIDDIKTKLDPKKQKVDRLRSGAQGNGAKKYEVITQVDMEDDGNVADNNCAKENNSNNNSSAAKNKAVFKLTLQSKSGDVFFAINSTPISWSSCMLGSKIVILPGTVFNRGVFILKDSQVIFLGGINRVWNENRDQKFCDYLESKLQRDKQLVNGGSKKRKAND
B3: Top3/GST-Rmi1 complex (complex)
chain 1: MKVLCVAEKNSIAKAVSQILGGGRSTSRDSGYMYVKNYDFMFSGFPFARNGANCEVTMTSVAGHLTGIDFSHDSHGWGKCAIQELFDAPLNEIMNNNQKKIASNIKREARNADYLMIWTDCDREGEYIGWEIWQEAKRGNRLIQNDQVYRAVFSHLERQHILNAARNPSRLDMKSVHAVGTRIEIDLRAGVTFTRLLTETLRNKLRNQATMTKDGAKHRGGNKNDSQVVSYGTCQFPTLGFVVDRFERIRNFVPEEFWYIQLVVENKDNGGTTTFQWDRGHLFDRLSVLTFYETCIETAGNVAQVVDLKSKPTTKYRPLPLTTVELQKNCARYLRLNAKQSLDAAEKLYQKGFISYPRTETDTFPHAMDLKSLVEKQAQLDQLAAGGRTAWASYAASLLQPENTSNNNKFKFPRSGSHDDKAHPPIHPIVSLGPEANVSPVERRVYEYVARHFLACCSEDAKGQSMTLVLDWAVERFSASGLVVLERNFLDVYPWARWETTKQLPRLEMNALVDIAKAEMKAGTTAPPKPMTESELILLMDTNGIGTDATIAEHIDKIQVRNYVRSEKVGKETYLQPTTLGVSLVHGFEAIGLEDSFAKPFQRREMEQDLKKICEGHASKTDVVKDIVEKYRKYWHKTNACKNTLLQVYDRVKASM
chain 2: B2 chain
B4: Top3/Rmi1 complex (as used in MST, XL-MS and D-loop assays) (complex)
chain 1: B3 chain 1
chain 2: B2 chain
B5: Top3 (untagged, subunit of the Top3/Rmi1 complex) (enzyme)
chain: B3 chain 1
B6: His-tagged Sgs1(1-107) fragment (domain or fragment)
chain: MVTKPSHNLRREHKWLKETATLQEDKDFVFQAIQKHIANKRPKTNSPPTTPSKDECGPGTTNFITSIPASGPTNTATKQHEVMQTLSNDTEWLSYTATSNQYADVPM

In assay [1] the target is Mer3-Strep (full-length S. cerevisiae Mer3 with C-terminal 2xStrep-II tag) (Saccharomyces cerevisiae (SK1)) (UniProt P51979). In words: SEC-MALS.
The assay “Top3/GST-Rmi1 complex” concerns the target B3. The experiment in a line: pull-down.
Assay [2] deals with B5. In words: cross-linking.
Another assay deals with T1, MBP-Mlh2. The experiment in a line: cross-linking.
Assay [3] deals with T2, MBP-Mlh1/MBP-Mlh2 complex. The experiment in a line: pull-down.
In assay [4] the target is T2, MBP-Mlh1/MBP-Mlh2 complex. In words: cross-linking.
The target of a further assay is T3, MBP-Mlh1. In words: cross-linking.

The molecule “Mer3-Strep (full-length S. cerevisiae Mer3 with C-terminal 2xStrep-II tag) (from UniProt P51979 1-1187) (enzyme)” displayed a stoichiometry N in assay [1] of 2. In the case of B1, the binding result in the assay with Top3/GST-Rmi1 complex was “binds”. As for B2, the binding result (in assay [2]; in the assay with MBP-Mlh2) was “binds” in each case. Regarding B3, in assay [3], the binding result is “binds”. Turning to B4, the binding result in assay [4] is listed as “binds”. B5: the binding result with MBP-Mlh1 is “binds”. Regarding B6, the binding result with Top3/GST-Rmi1 complex was “binds”.
